The test concerns the target His-tagged PKM1 (human) (UniProt P14618). Briefly: AlphaScreen or HTRF.

Chain of Pep-SP1 (Q6SZW1 whole entry, looked up): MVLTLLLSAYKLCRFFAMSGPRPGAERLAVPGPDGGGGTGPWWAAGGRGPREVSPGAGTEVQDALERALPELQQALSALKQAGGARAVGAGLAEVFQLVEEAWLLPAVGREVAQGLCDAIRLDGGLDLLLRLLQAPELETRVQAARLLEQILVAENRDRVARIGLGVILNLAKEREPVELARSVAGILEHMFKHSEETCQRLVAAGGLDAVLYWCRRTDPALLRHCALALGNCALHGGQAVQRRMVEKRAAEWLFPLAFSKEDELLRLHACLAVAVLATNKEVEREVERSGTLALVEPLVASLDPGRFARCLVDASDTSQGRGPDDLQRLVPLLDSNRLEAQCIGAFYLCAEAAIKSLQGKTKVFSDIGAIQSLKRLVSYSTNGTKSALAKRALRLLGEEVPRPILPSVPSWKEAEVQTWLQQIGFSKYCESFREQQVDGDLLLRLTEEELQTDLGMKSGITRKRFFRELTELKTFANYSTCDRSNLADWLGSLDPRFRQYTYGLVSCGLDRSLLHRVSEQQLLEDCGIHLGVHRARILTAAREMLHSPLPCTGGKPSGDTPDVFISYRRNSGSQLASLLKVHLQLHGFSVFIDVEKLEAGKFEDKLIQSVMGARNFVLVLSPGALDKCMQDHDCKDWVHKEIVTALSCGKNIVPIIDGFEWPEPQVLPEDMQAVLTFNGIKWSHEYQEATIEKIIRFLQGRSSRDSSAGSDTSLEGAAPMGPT

One may read the IC50 as the concentration that gives 50% inhibition. Low values mean greater potency, high ones weaker potency. Regarding “Pep-SP1 (from UniProt Q6SZW1 645-655) (peptide)”, the IC50 worked out at 1.07 µM.

The values above are taken from publication doi:10.1101/2025.05.28.656718.
